Assay results from the supplement of paper PMC7877785.
± gives the uncertainty stated by the source.

Test: self-splicing fitness, log relative to wild type (ln ratio); higher = more splicing; Tetrahymena group I intron in knt gene, E. coli kanamycin selection, DiMSum; sequences stand for … in CUCUCU…GGAGGGAAAAGUUAUCAGGCAUGCACCUGGUAGCUAGUCUUUAAACCAAUAGAUUGCAUCGGUUUAAAAGGCAAGACCGUCAAAUUGCGGGAAAGGGGUCAACAGCCGUUCAGUACCAAGUCUCAGGGGAAACUUUGAGAUGGCCUUGCAAAGGGUAUGGUAAUAAGCUGACGGACAUGGUCCUAACCACGCAGCCAAGUCCUAAGUCAACAGAUCUUCUGUUGAUAUGGAUGCAGUUCACAGACUAAAUGUCGGUCGGGGAAGAUGUAUUCUUCUCAUAAGAUAUAGUCGGACCUCUCCUUAAUGGGAGCUAGCGGAUGAAGUGAUGCAACACUGGAGCCGCUGGGAACUAAUUUGUAUGCGAAAGUAUAUUGAUUAGUUUUGGAGUACUCGUGGUCG
Procedure, shortened: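 Colonies from six replicate transformations of E. coli BL21(DE3) were pooled and amplicon-sequenced on an Illumina HiSeq 2500. The library placed an intron with all eight P1ex-region nucleotides randomised inside the knt kanamycin-resistance gene on pET-22b(+), and cells grew overnight at 37°C or 30°C on LB agar with or without 25 μg/mL kanamycin (plus 100 μg/mL carbenicillin, 50 μM IPTG, 0.2% rhamnose). Fitness is the DiMSum error-weighted combination of wild-type-normalised replicate fold changes, kanamycin versus none.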

Sequence	self-splicing fitness (ln) (30 °C)	self-splicing fitness (ln) (37 °C)
AUGCAGCAAUAUUACGGUCA	-1.2 ± 0.14	-1.08 ± 0.14
AUGCAGCAAUAUUACGUAGG	-1.72 ± 0.082	-1.16 ± 0.11
AUGCAGCAAUAUUACGUCGU	-0.894 ± 0.11	-1.66 ± 0.13
AUGCAGCAAUAUUACGUCUA	-0.692 ± 0.12	0.148 ± 0.1
AUGCAGCAAUAUUACGUUUG	-3.45 ± 0.17	-1.82 ± 0.17
AUGGAGCAAUAUUACGACAC	-1.26 ± 0.32	-1.08 ± 0.26
AUGGAGCAAUAUUACGACCU	-0.472 ± 0.14	0.103 ± 0.18
AUGGAGCAAUAUUACGAUAA	-2.21 ± 0.26	–
AUGGAGCAAUAUUACGCAGU	-3.57 ± 0.37	-3.17 ± 0.37
AUGGAGCAAUAUUACGCCGG	-2.78 ± 0.46	–
AUGGAGCAAUAUUACGCUUA	-2.53 ± 0.33	-0.194 ± 0.21
AUGGAGCAAUAUUACGGACU	-1.2 ± 0.18	-0.626 ± 0.23
AUGGAGCAAUAUUACGGCUC	-2.53 ± 0.45	–
AUGGAGCAAUAUUACGGGUG	-3.75 ± 0.39	-2.18 ± 0.22
AUGGAGCAAUAUUACGGUAA	–	-1.08 ± 0.16
AUGGAGCAAUAUUACGGUAU	-3.49 ± 0.16	-1.32 ± 0.1
AUGGAGCAAUAUUACGGUUU	-2.56 ± 0.26	-2.26 ± 0.21
AUGGAGCAAUAUUACGUACG	-3.38 ± 0.47	-2.58 ± 0.36
AUGGAGCAAUAUUACGUAGG	-3.11 ± 0.17	-2.76 ± 0.23
AUGGAGCAAUAUUACGUAUC	-3.83 ± 0.47	-1.67 ± 0.24
AUGGAGCAAUAUUACGUAUG	-4.28 ± 0.46	-3.19 ± 0.37
AUGGAGCAAUAUUACGUCUU	-2.52 ± 0.16	-1.81 ± 0.21
AUGGAGCAAUAUUACGUGUA	-3.43 ± 0.26	-3.04 ± 0.23
AUGUAGCAAUAUUACGACUG	-0.943 ± 0.1	-0.461 ± 0.1
AUGUAGCAAUAUUACGAGCC	–	-1.05 ± 0.49

Sequence	self-splicing fitness (ln) (30 °C)	self-splicing fitness (ln) (37 °C)
AUGUAGCAAUAUUACGAUAU	-0.909 ± 0.11	0.222 ± 0.14
AUGUAGCAAUAUUACGAUCG	-2.2 ± 0.15	-1.12 ± 0.2
AUGUAGCAAUAUUACGCUUG	-1.06 ± 0.14	-0.51 ± 0.15
AUGUAGCAAUAUUACGGAAG	–	-2.01 ± 0.31
AUGUAGCAAUAUUACGGCGU	-1.14 ± 0.11	-0.716 ± 0.094
AUGUAGCAAUAUUACGGUAA	-2.15 ± 0.23	-1.36 ± 0.17
AUGUAGCAAUAUUACGGUGA	-1.57 ± 0.13	-1.52 ± 0.16
AUGUAGCAAUAUUACGGUGU	-3.04 ± 0.16	-0.843 ± 0.1
AUGUAGCAAUAUUACGGUUA	-0.747 ± 0.17	-0.518 ± 0.14
AUGUAGCAAUAUUACGGUUC	-1.72 ± 0.099	-1.29 ± 0.12
AUGUAGCAAUAUUACGUAUA	-1.99 ± 0.2	-1.58 ± 0.21
AUGUAGCAAUAUUACGUCCC	-1.73 ± 0.17	-1.02 ± 0.27
AUGUAGCAAUAUUACGUCUG	-1.94 ± 0.19	-2.83 ± 0.26
AUGUAGCAAUAUUACGUCUU	-1.62 ± 0.13	-0.0792 ± 0.13
AUGUAGCAAUAUUACGUUCC	-1.92 ± 0.12	-0.942 ± 0.17
AUUAAGCAAUAUUACGAAUU	-2.27 ± 0.16	-1.46 ± 0.21
AUUAAGCAAUAUUACGACGA	-0.668 ± 0.11	0.398 ± 0.13
AUUAAGCAAUAUUACGAGCA	-0.83 ± 0.15	-0.726 ± 0.18
AUUAAGCAAUAUUACGAGGC	-3.18 ± 0.39	-1.99 ± 0.34
AUUAAGCAAUAUUACGAGUC	-3.25 ± 0.15	-3.29 ± 0.21
AUUAAGCAAUAUUACGCAGA	-2.88 ± 0.27	-1.36 ± 0.2
AUUAAGCAAUAUUACGCAUG	-1.09 ± 0.08	-0.301 ± 0.11
AUUAAGCAAUAUUACGGACA	-0.398 ± 0.22	-0.339 ± 0.2
AUUAAGCAAUAUUACGGCAU	-0.722 ± 0.076	-0.458 ± 0.094
AUUAAGCAAUAUUACGGCGU	-0.179 ± 0.073	0.712 ± 0.097

Sequence	self-splicing fitness (ln) (30 °C)	self-splicing fitness (ln) (37 °C)
AUUAAGCAAUAUUACGGUGU	-2.11 ± 0.088	-0.653 ± 0.11
AUUAAGCAAUAUUACGUCCG	-1.47 ± 0.13	-0.734 ± 0.17
AUUAAGCAAUAUUACGUCUC	-2.06 ± 0.12	-1.4 ± 0.19
AUUAAGCAAUAUUACGUGCC	-0.626 ± 0.096	-1.07 ± 0.14
AUUCAGCAAUAUUACGACAC	-1.45 ± 0.14	0.224 ± 0.17
AUUCAGCAAUAUUACGAGCC	-2.87 ± 0.47	-1.67 ± 0.45
AUUCAGCAAUAUUACGCAGU	-2.18 ± 0.17	0.359 ± 0.15
AUUCAGCAAUAUUACGCCGG	-1.07 ± 0.13	-0.848 ± 0.19
AUUCAGCAAUAUUACGCCUA	-0.46 ± 0.12	-0.501 ± 0.13
AUUCAGCAAUAUUACGCUGA	-3.06 ± 0.28	-2.6 ± 0.26
AUUCAGCAAUAUUACGCUUA	-0.623 ± 0.078	-0.332 ± 0.091
AUUCAGCAAUAUUACGCUUU	-0.755 ± 0.055	-0.787 ± 0.068
AUUCAGCAAUAUUACGGAAA	-1.03 ± 0.12	-0.365 ± 0.12
AUUCAGCAAUAUUACGGCAA	-0.94 ± 0.083	0.292 ± 0.1
AUUCAGCAAUAUUACGGGUG	-1.71 ± 0.077	-0.135 ± 0.086
AUUCAGCAAUAUUACGGUAG	-3.49 ± 0.17	-2.87 ± 0.2
AUUCAGCAAUAUUACGGUUG	-2.89 ± 0.11	-0.981 ± 0.11
AUUCAGCAAUAUUACGUACC	-0.843 ± 0.061	-0.514 ± 0.089
AUUCAGCAAUAUUACGUCCC	-1.53 ± 0.13	-1.3 ± 0.14
AUUCAGCAAUAUUACGUCCG	-0.866 ± 0.2	-1.33 ± 0.24
AUUCAGCAAUAUUACGUCGG	-3.16 ± 0.17	-2.28 ± 0.21
AUUCAGCAAUAUUACGUCUA	-0.634 ± 0.11	-0.557 ± 0.1
AUUCAGCAAUAUUACGUGCA	-0.628 ± 0.08	-0.47 ± 0.083
AUUCAGCAAUAUUACGUUUU	-2.06 ± 0.09	-0.724 ± 0.091
AUUGAGCAAUAUUACGAAAG	-2.69 ± 0.38	-1.72 ± 0.29

Sequence	self-splicing fitness (ln) (30 °C)	self-splicing fitness (ln) (37 °C)
AUUGAGCAAUAUUACGAAAU	-3.34 ± 0.12	-2.88 ± 0.16
AUUGAGCAAUAUUACGAGCG	-3.1 ± 0.27	–
AUUGAGCAAUAUUACGAUCA	-1.91 ± 0.16	-2.07 ± 0.17
AUUGAGCAAUAUUACGCGAA	-3.61 ± 0.37	-1.28 ± 0.26
AUUGAGCAAUAUUACGGACA	-2.68 ± 0.31	–
AUUGAGCAAUAUUACGGGCU	-4.12 ± 0.36	-2.25 ± 0.42
AUUGAGCAAUAUUACGGUGU	-1.92 ± 0.15	-2.31 ± 0.37
AUUGAGCAAUAUUACGGUUG	-3.28 ± 0.31	-2.48 ± 0.29
AUUGAGCAAUAUUACGUCAG	-2.96 ± 0.2	-2.3 ± 0.45
AUUGAGCAAUAUUACGUUCC	-1.94 ± 0.23	-2.1 ± 0.3
AUUUAGCAAUAUUACGAAGA	-2.11 ± 0.4	-1.36 ± 0.34
AUUUAGCAAUAUUACGACAC	-0.837 ± 0.12	-0.373 ± 0.14
AUUUAGCAAUAUUACGACGC	-1.8 ± 0.19	-0.352 ± 0.21
AUUUAGCAAUAUUACGAGCU	-1.88 ± 0.17	-0.00846 ± 0.15
AUUUAGCAAUAUUACGAUCG	-1.76 ± 0.15	-0.669 ± 0.12
AUUUAGCAAUAUUACGCCAC	-3.24 ± 0.48	-1.36 ± 0.35
AUUUAGCAAUAUUACGCCCU	0.0873 ± 0.082	0.37 ± 0.11
AUUUAGCAAUAUUACGGACC	-1.57 ± 0.2	-1.29 ± 0.27
AUUUAGCAAUAUUACGGAUA	-2.18 ± 0.27	-1.53 ± 0.27
AUUUAGCAAUAUUACGGCCA	-0.814 ± 0.21	-0.925 ± 0.23
AUUUAGCAAUAUUACGGGGC	-3.54 ± 0.41	–
AUUUAGCAAUAUUACGUAAC	-2.52 ± 0.18	-2.58 ± 0.2
AUUUAGCAAUAUUACGUAAG	-2.8 ± 0.18	0.197 ± 0.18
